Data published in patent publication US10866245B2, “Methods for dye selection for protein melt temperature determinations” (LIFE TECHNOLOGIES CORPORATION, priority 2013, dated 2020).

Tests used:
[1] = biological target: T1, T4 DNA ligase (Enterobacteria phage T4, UniProt P00970); test: Protein Thermal Shift assay of T4 DNA ligase with and without ligand ATP (SYPRO Orange); assay type: binding; details: derivative curve FIG. 2B
T1 sequence (P00970 1-487): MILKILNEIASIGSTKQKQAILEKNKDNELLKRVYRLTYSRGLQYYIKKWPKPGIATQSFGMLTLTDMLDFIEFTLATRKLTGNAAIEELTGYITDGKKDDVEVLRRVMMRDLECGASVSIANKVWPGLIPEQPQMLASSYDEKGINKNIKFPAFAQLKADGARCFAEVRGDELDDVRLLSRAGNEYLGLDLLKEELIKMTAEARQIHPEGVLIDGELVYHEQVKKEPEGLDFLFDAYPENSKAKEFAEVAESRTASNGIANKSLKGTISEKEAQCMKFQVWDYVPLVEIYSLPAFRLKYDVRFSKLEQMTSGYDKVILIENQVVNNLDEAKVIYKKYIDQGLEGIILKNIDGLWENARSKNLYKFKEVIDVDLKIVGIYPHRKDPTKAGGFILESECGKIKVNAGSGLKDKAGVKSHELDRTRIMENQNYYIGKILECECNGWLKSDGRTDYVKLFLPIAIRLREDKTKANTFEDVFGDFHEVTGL
Protocol: (§1) Applied Biosystems® Real-time PCR Systems instruments, as described above, are used to plot the fluorescence data throughout the thermal melt, generating a fluorescence profile specific to the protein of interest within the test buffer environment or in the presence of a test ligand. A MATLAB based TmTool™ which utilizes the Boltzmann equation to calculate the Tm of the protein from the fluorescence melt plot is used to process the raw data recorded with the instrument.
T4 DNA ligase is prepared in phosphate buffered saline (PBS; 137 mM NaCl, 10 mM Phosphate, 2.7 mM KCl, pH 7.4) and 5% glycerol at a concentration of 3 mg/ml of protein. T4 DNA ligase samples are prepared using SYPRO® Orange with and without ligand (ATP at 10 mM concentration). SYPRO® Orange dye solution is prepared as a 1000× stock from a 5000× stock solution in DMSO, then diluted to a 10× stock solution using 100 mM Potassium phosphate buffer. The SYPRO® Orange-protein reaction mixture is prepared by using 1 μl of the protein solution, 2 μl of the 10× dye solution, and 17 μl of the PTS buffer. Quadruplicate samples for each protein-dye mixture are run on a ViiA™ 7 qPCR instrument (Life Technologies, Inc.) and analysis using Protein Thermal Shift™ software (Life Technologies Inc.). […]

[2] = Protein Thermal Shift buffer and salt screen of RecA (SYPRO Orange, Boltzmann fit); assay type: physicochemical
Source text: as §1
FIGS. 3A through 3C illustrate the method of calculating Tm from a typical PTS. The MATLAB based TmTool™ calculates the Tm of the protein from the shape of the fluorescence plot in FIG. 3a. The thermo-stability of RecA in different buffer and salt conditions is compared and the region of interest is fitted to the Boltzmann equation. RecA is prepared in phosphate buffered saline (PBS; 137 mM NaCl, 10 mM Phosphate, 2.7 mM KCl, pH 7.4) and 5% glycerol at a concentration of 3 mg/ml of protein. SYPRO® Orange dye solution is prepared as a 1000× stock from a 5000× stock solution in DMSO, then diluted to a 10× stock solution with PTS buffer.
The SYPRO® Orange-protein Protein Thermal Shift Assay reaction mixture is prepared by using 1 μl of the protein solution, 2 μl of the 10× dye solution, and 17 μl of each of experimental buffer solutions A1-A4, B1-B4, C1-C4, and D1-D4. Samples for each protein-dye mixture are run on a ViiA™ 7 qPCR instrument (Life Technologies, Inc.) and analysis using Protein Thermal Shift™ software (Life Technologies Inc.). The run time conditions are: a temperature hold at 20° C. for one minute followed by a thermal ramp of 0.05° C. with continuous data collection to 95° C., followed by a 1 minute hold at the final temperature.
The Applied Biosystems' TmTool™ calculator provides the protein Tm calculated via Boltzmann curve-fitting. […] Thus, the methods can be used to identify salt and pH concentrations best suited for stability of a protein as well as conditions for protein storage, crystallography, etc. The Boltzmann equation used is: […]

[3] = Protein Thermal Shift of RecA with dye formulation 7 versus SYPRO Orange alone; assay type: physicochemical
Protocol: The assays are run on a ViiA™7 qPCR instrument (Life Technologies, Inc.) and analyzed using Protein Thermal Shift™ software (Life Technologies Inc.). The run time conditions are: a temperature hold at 20° C. for one minute followed by a thermal ramp of 0.05° C. with continuous data collection to 95° C., followed by a 1 minute hold at the final temperature.
PTS is performed on RecA, using conditions as is discussed in Example 6. 1.4 μl of each of the 100× dye formulations is added according to Table 9. PTS reproducibility is improved with dye formulation 7 (SYPRO® Orange, SYPRO® Red and SYPRO® Tangerine) (FIGS. 13A and 13B) using an X5-M5 filter relative to SYPRO® Orange alone using an X4-M4 filter. In FIG. 13A, using the mixture of dyes (formulation 7), the two melt curves shown are for RecA in E3 and C3 buffer, respectively.

[4] = biological target: T2, Human Decorin Protein (Homo sapiens, UniProt P07585); test: Protein Thermal Shift of human Decorin, anti-Decorin antibody and their mixture; assay type: binding; details: isolated protein or isolated antibody
T2 construct: purchased R&D Systems 143-DE
Protocol: T4 DNA ligase is prepared in phosphate buffered saline (PBS; 137 mM NaCl, 10 mM Phosphate, 2.7 mM KCl, pH 7.4) and 5% glycerol at a concentration of 3 mg/ml of protein. T4 DNA ligase samples are prepared using SYPRO® Orange with and without ligand (ATP at 10 mM concentration). SYPRO® Orange dye solution is prepared as a 1000× stock from a 5000× stock solution in DMSO, then diluted to a 10× stock solution using 100 mM Potassium phosphate buffer. The SYPRO® Orange-protein reaction mixture is prepared by using 1 μl of the protein solution, 2 μl of the 10× dye solution, and 17 μl of the PTS buffer. Quadruplicate samples for each protein-dye mixture are run on a ViiA™ 7 qPCR instrument (Life Technologies, Inc.) and analysis using Protein Thermal Shift™ software (Life Technologies Inc.). The run time conditions are: a temperature hold at 20° C. for one minute followed by a thermal ramp of 0.05° C. with continuous data collection to 95° C., followed by a 1 minute hold at the final temperature.
An assay was performed to identify whether PTS can be used to analyze binding of an antibody to its ligand. The method is performed using buffer and reaction conditions as described in EXAMPLE 1.

Molecule: Nc1ncnc2c1ncn2[C@@H]1O[C@H](COP(=O)(O)OP(=O)(O)OP(=O)(O)O)[C@@H](O)[C@H]1O [ATP, reference compound]
- Tm of complexed T4 DNA Ligase ([1]; with ligand ATP at 10 mM): about 48 °C

Molecule: RecA: RecA DNA repair protein
- Tm in ° C. ([2]; Buffer A1: 100 mM Sodium Citrate, pH 5.5, 0 mM NaCl): 42.2 °C
- Tm in ° C. ([2]; Buffer A2: 100 mM Sodium Citrate, pH 5.5, 50 mM NaCl): 41.7 °C
- Tm in ° C. ([2]; Buffer A3: 100 mM Sodium Citrate, pH 5.5, 100 mM NaCl): 42.1 °C
- Tm in ° C. ([2]; Buffer A4: 100 mM Sodium Citrate, pH 5.5, 150 mM NaCl): 41.6 °C
- Tm in ° C. ([2]; Buffer B1: 100 mM Potassium Phosphate, pH 6.0, 0 mM NaCl): 41.8 °C
- Tm in ° C. ([2]; Buffer B2: 100 mM Potassium Phosphate, pH 6.0, 50 mM NaCl): 41.2 °C
- Tm in ° C. ([2]; Buffer B3: 100 mM Potassium Phosphate, pH 6.0, 100 mM NaCl): 41.2 °C
- Tm in ° C. ([2]; Buffer B4: 100 mM Potassium Phosphate, pH 6.0, 150 mM NaCl): 41.1 °C
- Tm in ° C. ([2]; Buffer C1: 100 mM Potassium Phosphate, pH 7.0, 0 mM NaCl): 46.8 °C
- Tm in ° C. ([2]; Buffer C2: 100 mM Potassium Phosphate, pH 7.0, 50 mM NaCl): 46.6 °C
- Tm in ° C. ([2]; Buffer C3: 100 mM Potassium Phosphate, pH 7.0, 100 mM NaCl): 46 °C
- Tm in ° C. ([2]; Buffer C4: 100 mM Potassium Phosphate, pH 7.0, 150 mM NaCl): 45.7 °C
- Tm ([3]; Buffer C3, SYPRO Orange alone, X4-M4 filter): 53.3 °C
- Tm ([3]; Buffer C3, dye formulation 7, X5-M5 filter): 49.5 °C
- Tm ([3]; Buffer E3, SYPRO Orange alone, X4-M4 filter): 48.1 °C
- Tm ([3]; Buffer E3, dye formulation 7, X5-M5 filter): 45.7 °C

B1: Human Decorin: Human Decorin Protein, P/N 143-DE (R&D Systems) (protein, UniProt P07585 31-359, looked up)
Decorin: DEASGIGPEVPDDRDFEPSLGPVCPFRCQCHLRVVQCSDLGLDKVPKDLPPDTTLLDLQNNKITEIKDGDFKNLKNLHALILVNNKISKVSPGAFTPLVKLERLYLSKNQLKELPEKMPKTLQELRAHENEITKVRKVTFNGLNQMIVIELGTNPLKSSGIENGAFQGMKKLSYIRIADTNITSIPQGLPPSLTELHLDGNKISRVDAASLKGLNNLAKLGLSFNSISAVDNGSLANTPHLRELHLDNNKLTRVPGGLAEHKYIQVVYLHNNNISVVGSSDFCPPGHNTKKASYSGVSLFSNPVQYWEIQPSTFRCVYVRSAIQLGNYK
- Tm [4]: 47.7 °C

B2: T4 DNA Ligase: T4 DNA ligase enzyme prepared in PBS and 5% glycerol at 3 mg/ml (protein, UniProt P00970 1-487, looked up)
DNA ligase: MILKILNEIASIGSTKQKQAILEKNKDNELLKRVYRLTYSRGLQYYIKKWPKPGIATQSFGMLTLTDMLDFIEFTLATRKLTGNAAIEELTGYITDGKKDDVEVLRRVMMRDLECGASVSIANKVWPGLIPEQPQMLASSYDEKGINKNIKFPAFAQLKADGARCFAEVRGDELDDVRLLSRAGNEYLGLDLLKEELIKMTAEARQIHPEGVLIDGELVYHEQVKKEPEGLDFLFDAYPENSKAKEFAEVAESRTASNGIANKSLKGTISEKEAQCMKFQVWDYVPLVEIYSLPAFRLKYDVRFSKLEQMTSGYDKVILIENQVVNNLDEAKVIYKKYIDQGLEGIILKNIDGLWENARSKNLYKFKEVIDVDLKIVGIYPHRKDPTKAGGFILESECGKIKVNAGSGLKDKAGVKSHELDRTRIMENQNYYIGKILECECNGWLKSDGRTDYVKLFLPIAIRLREDKTKANTFEDVFGDFHEVTGL
- Tm of uncomplexed T4 DNA Ligase ([1]; no ligand): about 42 °C
